This note sets out measurements from the Immune Epitope Database (IEDB).

The target of one assay is HLA-B*46:01. Put plainly: IEDB peptide-MHC binding, purified MHC/competitive/fluorescence; filed as Kd, often an IC50 or EC50 that approximates it; ≥ and ≤ were set here for values at or beyond the usual limits of such assays.
Another assay concerns the target HLA-B*51:01. Described as above.
The target in assay [1] is HLA-A*02:12. The assay is described as above. Conditions: source organism: Plasmodium yoelii yoelii.
The target in another assay is HLA-A*69:01. The assay is described as above.
The target in the next assay is HLA-B*27:03. Described as above.
A further assay concerns the target HLA-A*02:01. The description is as above.
The target in assay [2] is HLA-A*29:02. The description is as above. Conditions: source organism: Plasmodium yoelii yoelii.
The target of the next assay is HLA-B*18:01. Described as above.
The target in a further assay is HLA-A*26:01. The assay is described as above.
Assay [3] addresses HLA-A*02:03. The description is as above. The note with it: source organism: Plasmodium yoelii yoelii.
Assay [4] concerns the target HLA-A*23:01. The description is as above.
The target of assay [5] is HLA-A*02:19. The description is as above. Conditions: source organism: Plasmodium yoelii yoelii.
For the next assay, the target named is HLA-B*57:01. Described as above.
The target in assay [6] is HLA-A*24:03. Described as above. The note with it: source organism: Plasmodium yoelii yoelii.
For assay [7], the target named is HLA-A*68:02. The assay is described as above. Conditions: source organism: Plasmodium yoelii yoelii.
Assay [8] concerns the target HLA-A*03:01. The description is as above. Conditions: source organism: Plasmodium yoelii yoelii.
For a further assay, the target named is HLA-B*15:01. The assay is described as above.
Another assay deals with HLA-B*39:01. The description is as above.
The target in the next assay is HLA-B*08:01. Described as above. Conditions: source organism: Yersinia pestis Nepal516.
The target of a further assay is HLA-B*07:02. The assay is described as above. The note with it: source organism: Yersinia pestis Nepal516.
For a further assay, the target named is HLA-A*02:11. The assay can be described thus: IEDB peptide-MHC binding, purified MHC/direct/fluorescence; filed as Kd, often an IC50 or EC50 that approximates it; ≥ and ≤ were set here for values at or beyond the usual limits of such assays. Conditions: source organism: Zaire ebolavirus.
Assay [9] deals with HLA-A*02:12. The description is as above. The note with it: source organism: Zaire ebolavirus.
In assay [10] the target is HLA-A*29:02. The assay is described as above. Conditions: source organism: Zaire ebolavirus.
A further assay has as its target HLA-A*02:16. The description is as above. The note with it: source organism: Zaire ebolavirus.
The target in assay [11] is HLA-A*02:03. The description is as above. The note with it: source organism: Zaire ebolavirus.
Assay [12] deals with HLA-A*23:01. The assay is described as above. The note with it: source organism: Zaire ebolavirus.
For assay [13], the target named is HLA-A*02:19. The assay is described as above. The note with it: source organism: Zaire ebolavirus.
Assay [14] addresses HLA-A*24:03. The assay is described as above. Conditions: source organism: Zaire ebolavirus.
Assay [15] has as its target HLA-A*68:02. The assay is described as above. The note with it: source organism: Zaire ebolavirus.
In assay [16] the target is HLA-A*03:01. The assay is described as above. The note with it: source organism: Sudan ebolavirus - Maleo (1979).
The next assay concerns the target HLA-B*15:17. The assay can be described thus: IEDB peptide-MHC binding, purified MHC/competitive/fluorescence; filed as Kd, often an IC50 or EC50 that approximates it; ≥ and ≤ were set here for values at or beyond the usual limits of such assays. The note with it: source organism: Zaire ebolavirus.
Where [17] appears, read: source organism: Plasmodium yoelii yoelii.
The mark [18] stands for this setting: source organism: Zaire ebolavirus.

The term Kd denotes the concentration at which binding is half-saturated. Read a high Kd as a looser complex. On to KPPRGVLLY, for which the dissociation constant (Kd) in the assay with HLA-B*46:01 (setting [17]), with HLA-B*51:01 (setting [17]), in the assay with HLA-A*02:12 [1], in the assay with HLA-A*69:01 (setting [17]), with HLA-B*27:03 (setting [17]) and with HLA-A*02:01 (setting [17]) was ≥ 20 µM each time. Besides, the dissociation constant Kd with HLA-A*29:02 [2] is 0.115 µM; with HLA-B*18:01 (setting [17]), ≥ 20 µM; with HLA-A*26:01 (setting [17]), ≥ 20 µM; with HLA-A*02:03 [3], ≥ 20 µM; with HLA-A*23:01 [4] (setting [17]) it was ≥ 20 µM; in the assay with HLA-A*02:19 [5], ≥ 20 µM. Moreover, the dissociation constant Kd in the assay with HLA-B*57:01 (setting [17]), with HLA-A*24:03 [6], with HLA-A*68:02 [7], with HLA-A*03:01 [8], with HLA-B*15:01 (setting [17]) and in the assay with HLA-B*39:01 (setting [17]) was ≥ 20 µM in each case.
Take MPLKVQVCI: the values for the dissociation constant Kd with HLA-B*08:01, in the assay with HLA-B*07:02 and with HLA-B*51:01 (source organism: Yersinia pestis Nepal516) were 0.816 µM, 0.304 µM and 1.27 µM, respectively.
As for HLSGWELAK, the dissociation constant Kd in the assay with HLA-A*02:11, with HLA-A*02:12 [9], with HLA-A*29:02 [10], with HLA-A*02:16, with HLA-A*02:03 [11] and with HLA-A*23:01 [12] was ≥ 20 µM each time. The Kd with HLA-A*02:19 [13] is ≥ 20 µM; with HLA-A*24:03 [14], ≥ 20 µM; with HLA-A*68:02 [15] it was ≥ 20 µM; with HLA-A*03:01 [16], 0.148 µM; in the assay with HLA-B*46:01 (setting [18]), ≥ 20 µM; in the assay with HLA-B*15:17, ≥ 20 µM. In addition, the Kd in the assay with HLA-B*51:01 (setting [18]), with HLA-A*69:01 (setting [18]), in the assay with HLA-B*27:03 (setting [18]), with HLA-A*02:01 (setting [18]), in the assay with HLA-B*18:01 (setting [18]) and in the assay with HLA-A*26:01 (setting [18]) was ≥ 20 µM throughout. In addition, the Kd with HLA-B*57:01 (setting [18]), with HLA-B*15:01 (setting [18]) and in the assay with HLA-B*39:01 (setting [18]) was ≥ 20 µM in each case.
As to TYQVYRYII, the Kd with HLA-A*23:01 [4] (source organism: Yersinia enterocolitica (type O:8)) was ≤ 0.0001 µM.
